The text below walks through data of US20220348635A1, “COMPOSITIONS AND METHODS FOR NEUROLOGICAL DISEASES” (Coda Biotherapeutics, Inc., priority 2019, published 2022).

Holding throughout (type): cell-based
Experiment [1] can be described thus: Manual patch clamp, HEK cell line, acetylcholine. To be noted: HEK293 cells and cultured rat DRG sensory neurons. The method, then: FIG. 2A-FIG. 2B show the concentration-response curves of CR-11 (Chemogenic receptor-11, an engineered receptor comprising an amino acid sequence having the amino acid substitutions of Y115D and L131Q in SEQ ID NO: 33) expressed in HEK 293 cells to acetylcholine as well as to non-native ligands RG-3487 (SA-2, Synthetic Agonist-2). The responses were evaluated using manual patch clamp electrophysiology. Currents were normalized to unity for the maximal response. The continuous line through the data points is the best fit obtained with the Hill equation, and EC50s for each ligand are estimated from the concentration-response curves.
Using whole cell manual patch clamp electrophysiology in HEK293 cells and rat DRG neurons, the EC50 of the various engineered receptors disclosed herein to Ach and non-native ligands was measured. The rheobase shift was also measured in rat DRG neurons, which reflects the efficacy of the receptors. To calculate the rheobase, first, the amount of current that can produce an action potential was determined. Then the ligand was added, followed by a step wise increase in the current injected up to 700 pA. […] The EC50 was calculated using the Hill equation with peak current measurements from escalating doses of ligand.

A short description of experiment [2]: YFP quench plate reader assay, response to APN-1125. To be noted: LX293T YFP reporter cells. The method, boiled down:
(§1)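 LX293T cells transiently transfected with engineered chimeric LGIC DNA in a YFP anion-reporter background, then equilibrated 30 min at 37 °C in ECS pH 7.2. Ligand in NaI-substituted ECS added after a 17 s baseline; YFP fluorescence read every 1.3 s for 2 min, reported as percent quench […].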

Experiment [3] can be described thus: Manual patch clamp, rat DRG neurons, Facinicline/RG3487. The conditions noted are these: cultured adult rat DRG neurons expressing the receptor; not observed in non-transduced cells. As for the experimental part: Using whole cell manual patch clamp electrophysiology in HEK293 cells and rat DRG neurons, the EC50 of the various engineered receptors disclosed herein to Ach and non-native ligands was measured. The rheobase shift was also measured in rat DRG neurons, which reflects the efficacy of the receptors. To calculate the rheobase, first, the amount of current that can produce an action potential was determined. Then the ligand was added, followed by a step wise increase in the current injected up to 700 pA. The current injected after addition of the ligand was divided by, the original current injected to obtain an action potential, to calculate the rheobase. The EC50 was calculated using the Hill equation with peak current measurements from escalating doses of ligand.

Experiment [4] is described as follows: YFP quench plate reader assay, response to RG3487. The conditions noted are these: LX293T YFP reporter cells. The method, boiled down: as §1

B1: Y115D, L131Q in SEQ ID NO: 33: CR-11 (Chemogenic receptor-11): SEQ ID NO: 33 with substitutions Y115D and L131Q (protein)
chain: MRCSPGGVWLALAASLLHVSLQGEFQRKLYKELVKNYNPLERPVANDSQPLTVYFSLSLLQIMDVDEKNQVLTTNIWLQMSWTDHYLQWNVSEYPGVKTVRFPDGQIWKPDILLDNSADERFDATFHTNVQVNSSGHCQYLPPGIFKSSCPMDLKNFPMDVQTCKLKFGSWSYGGWSLDLQMQEADISGYIPNGEWDLVGIPGKRSERFYECCKEPYPDVTFTVTMRRRMGYYLIQMYIPSLLIVILSWISFWINMDAAPARVGLGITTVLTMTTQSSGSRASLPKVSYVKAIDIWMAVCLLFVFSALLEYAAVNFVSRQHKELLRFRRKRRHHKSPMLNLFQEDEAGEGRFNFSAYGMGPACLQAKDGISVKGANNSNTTNPPPAPSKSPEEMRKLFIQRAKKIDKISRIGFPMAFLIFNMFYWIIYKIVRREDVHNQ
modifications: synthetic sequence of chimeric LGIC
Take B1: the “sensitivity / potency to acetylcholine” value in experiment [1] was “essentially insensitive”. Also, the “percent quench of YFP fluorescence, 100 nM apn” value in experiment [2] (100 nM APN-1125) is −10.03%. The “percent quench of YFP fluorescence, 1 uM apn” value in experiment [2] (1 uM APN-1125) is reported as −3.33%. For the same molecule, in experiment [2] (30 uM APN-1125), the “percent quench of YFP fluorescence, 30 uM apn” value is 6.96%. Besides, the “chloride current on application of RG-3487 (SA-2)” value in experiment [3] is on record as “generated chloride current in a dose dependent manner”. Further, in experiment [4] (30 nM RG3487), the “percent quench of YFP fluorescence, 30 nM fac” value is reported as 41.32%. In addition, the “percent quench of YFP fluorescence, 100 nM fac” value in experiment [4] (100 nM RG3487) is on record as 59.51%. The “percent quench of YFP fluorescence, 300 nM fac” value in experiment [4] (300 nM RG3487) is 74.86%. In addition, the “percent quench of YFP fluorescence, 10 uM fac” value in experiment [4] (10 uM RG3487) stood at 78.53%. Also, in experiment [4] (30 uM RG3487), the “percent quench of YFP fluorescence, 30 uM fac” value was 84.45%.
